Measured values taken from PMC8869672.

Target: T1, NADPH-cytochrome P450 reductase (human (endogenous in human liver microsomes)) (UniProt P16435)
T1 sequence: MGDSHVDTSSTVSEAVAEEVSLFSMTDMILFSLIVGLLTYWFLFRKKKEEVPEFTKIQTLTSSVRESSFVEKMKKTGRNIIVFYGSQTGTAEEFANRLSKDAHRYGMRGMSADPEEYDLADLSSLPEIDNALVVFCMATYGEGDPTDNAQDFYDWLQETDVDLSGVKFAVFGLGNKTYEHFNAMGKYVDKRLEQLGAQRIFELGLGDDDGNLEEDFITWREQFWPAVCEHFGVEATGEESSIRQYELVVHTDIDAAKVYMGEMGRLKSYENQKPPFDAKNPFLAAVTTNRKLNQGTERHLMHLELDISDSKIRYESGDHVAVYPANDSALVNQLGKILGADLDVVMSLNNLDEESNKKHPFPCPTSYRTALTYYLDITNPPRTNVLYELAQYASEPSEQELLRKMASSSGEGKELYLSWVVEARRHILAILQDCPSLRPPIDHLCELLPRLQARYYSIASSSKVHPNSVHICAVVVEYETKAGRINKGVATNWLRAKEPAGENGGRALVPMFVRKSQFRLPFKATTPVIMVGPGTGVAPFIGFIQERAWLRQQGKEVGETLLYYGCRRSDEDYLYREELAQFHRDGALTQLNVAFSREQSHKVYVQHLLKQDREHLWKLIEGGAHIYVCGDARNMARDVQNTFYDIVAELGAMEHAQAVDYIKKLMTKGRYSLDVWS

- Vmax of 7-EFC deethylation by CYP2E1-BPM incorporated into insect cell microsomes with cDNA-expressed human CPR and cytochrome b5 (SS(CPR+b5)2E1-BPM), normalised per CPR: 0.104 s⁻¹
- Vmax of 7-EFC deethylation by CYP2E1-BPS incorporated into insect cell microsomes with cDNA-expressed human CPR and cytochrome b5 (SS(CPR+b5)2E1-BPS), normalised per CPR: 1.51 s⁻¹
Substance: C-terminally His-tagged and N-terminally truncated Δ3–20 CYP2E1 modified with benzophenone-4-maleimide (BPM) or 4-(N-succinimidylcarboxy)benzophenone (BPS) (from UniProt P05181 1-493) (enzyme)
